Source: patent publication US20110118131A1 (published 2011)

Biological target: T1, IL-1beta (UniProt P01584 117-269)
T1 construct: also called IL-1β
Experiment: Biacore

Binder	binding result	fold difference in affinity vs parental [fold]
XPA23 Fab, heavy chain S52D (Fab, V domains shown) VH: EVQLLESGGGLVQPGGSLRLSCAASGFTFSKYFMFWVRQAPGKGLEWVSVIDPSGGMTRYADSVKGRFTISRDNSKNTLYLQMNSLRAEDTAVYYCARVGYGGNSDYWGQGTLVTVSS VL: DIQMTQSPSSVSASVGDRLTIICRASQDINRWLAWYQQTPGNAPKLLIHSATSLQSGVPSRFSGSGSGTDFTLTINSLQPEDFATYYCQQADSFPLTFGGGTKVEIK	no binding	–
XPA23 Fab, heavy chain S52F (Fab, V domains shown) VH: EVQLLESGGGLVQPGGSLRLSCAASGFTFSKYFMFWVRQAPGKGLEWVSVIFPSGGMTRYADSVKGRFTISRDNSKNTLYLQMNSLRAEDTAVYYCARVGYGGNSDYWGQGTLVTVSS VL: DIQMTQSPSSVSASVGDRLTIICRASQDINRWLAWYQQTPGNAPKLLIHSATSLQSGVPSRFSGSGSGTDFTLTINSLQPEDFATYYCQQADSFPLTFGGGTKVEIK	no binding	–
XPA23 Fab, heavy chain S105H (Fab, V domains shown) VH: EVQLLESGGGLVQPGGSLRLSCAASGFTFSKYFMFWVRQAPGKGLEWVSVISPSGGMTRYADSVKGRFTISRDNSKNTLYLQMNSLRAEDTAVYYCARVGYGGNHDYWGQGTLVTVSS VL: DIQMTQSPSSVSASVGDRLTIICRASQDINRWLAWYQQTPGNAPKLLIHSATSLQSGVPSRFSGSGSGTDFTLTINSLQPEDFATYYCQQADSFPLTFGGGTKVEIK	–	0.05
XPA23 Fab, heavy chain S52W (Fab, V domains shown) VH: EVQLLESGGGLVQPGGSLRLSCAASGFTFSKYFMFWVRQAPGKGLEWVSVIWPSGGMTRYADSVKGRFTISRDNSKNTLYLQMNSLRAEDTAVYYCARVGYGGNSDYWGQGTLVTVSS VL: DIQMTQSPSSVSASVGDRLTIICRASQDINRWLAWYQQTPGNAPKLLIHSATSLQSGVPSRFSGSGSGTDFTLTINSLQPEDFATYYCQQADSFPLTFGGGTKVEIK	no binding	–
XPA23 Fab, heavy chain S105E (Fab, V domains shown) VH: EVQLLESGGGLVQPGGSLRLSCAASGFTFSKYFMFWVRQAPGKGLEWVSVISPSGGMTRYADSVKGRFTISRDNSKNTLYLQMNSLRAEDTAVYYCARVGYGGNEDYWGQGTLVTVSS VL: DIQMTQSPSSVSASVGDRLTIICRASQDINRWLAWYQQTPGNAPKLLIHSATSLQSGVPSRFSGSGSGTDFTLTINSLQPEDFATYYCQQADSFPLTFGGGTKVEIK	–	1.17
XPA23 Fab, heavy chain S54N (Fab, V domains shown) VH: EVQLLESGGGLVQPGGSLRLSCAASGFTFSKYFMFWVRQAPGKGLEWVSVISPNGGMTRYADSVKGRFTISRDNSKNTLYLQMNSLRAEDTAVYYCARVGYGGNSDYWGQGTLVTVSS VL: DIQMTQSPSSVSASVGDRLTIICRASQDINRWLAWYQQTPGNAPKLLIHSATSLQSGVPSRFSGSGSGTDFTLTINSLQPEDFATYYCQQADSFPLTFGGGTKVEIK	–	0.08
XPA23 Fab, heavy chain S54Y (Fab, V domains shown) VH: EVQLLESGGGLVQPGGSLRLSCAASGFTFSKYFMFWVRQAPGKGLEWVSVISPYGGMTRYADSVKGRFTISRDNSKNTLYLQMNSLRAEDTAVYYCARVGYGGNSDYWGQGTLVTVSS VL: DIQMTQSPSSVSASVGDRLTIICRASQDINRWLAWYQQTPGNAPKLLIHSATSLQSGVPSRFSGSGSGTDFTLTINSLQPEDFATYYCQQADSFPLTFGGGTKVEIK	–	0.99
XPA23 Fab, heavy chain S52R (Fab, V domains shown) VH: EVQLLESGGGLVQPGGSLRLSCAASGFTFSKYFMFWVRQAPGKGLEWVSVIRPSGGMTRYADSVKGRFTISRDNSKNTLYLQMNSLRAEDTAVYYCARVGYGGNSDYWGQGTLVTVSS VL: DIQMTQSPSSVSASVGDRLTIICRASQDINRWLAWYQQTPGNAPKLLIHSATSLQSGVPSRFSGSGSGTDFTLTINSLQPEDFATYYCQQADSFPLTFGGGTKVEIK	no binding	–
XPA23 Fab, heavy chain S52Q (Fab, V domains shown) VH: EVQLLESGGGLVQPGGSLRLSCAASGFTFSKYFMFWVRQAPGKGLEWVSVIQPSGGMTRYADSVKGRFTISRDNSKNTLYLQMNSLRAEDTAVYYCARVGYGGNSDYWGQGTLVTVSS VL: DIQMTQSPSSVSASVGDRLTIICRASQDINRWLAWYQQTPGNAPKLLIHSATSLQSGVPSRFSGSGSGTDFTLTINSLQPEDFATYYCQQADSFPLTFGGGTKVEIK	no binding	–
XPA23 Fab, heavy chain S54F (Fab, V domains shown) VH: EVQLLESGGGLVQPGGSLRLSCAASGFTFSKYFMFWVRQAPGKGLEWVSVISPFGGMTRYADSVKGRFTISRDNSKNTLYLQMNSLRAEDTAVYYCARVGYGGNSDYWGQGTLVTVSS VL: DIQMTQSPSSVSASVGDRLTIICRASQDINRWLAWYQQTPGNAPKLLIHSATSLQSGVPSRFSGSGSGTDFTLTINSLQPEDFATYYCQQADSFPLTFGGGTKVEIK	–	0.87
XPA23 Fab, heavy chain S105F (Fab, V domains shown) VH: EVQLLESGGGLVQPGGSLRLSCAASGFTFSKYFMFWVRQAPGKGLEWVSVISPSGGMTRYADSVKGRFTISRDNSKNTLYLQMNSLRAEDTAVYYCARVGYGGNFDYWGQGTLVTVSS VL: DIQMTQSPSSVSASVGDRLTIICRASQDINRWLAWYQQTPGNAPKLLIHSATSLQSGVPSRFSGSGSGTDFTLTINSLQPEDFATYYCQQADSFPLTFGGGTKVEIK	–	1.25
XPA23 Fab, heavy chain S54K (Fab, V domains shown) VH: EVQLLESGGGLVQPGGSLRLSCAASGFTFSKYFMFWVRQAPGKGLEWVSVISPKGGMTRYADSVKGRFTISRDNSKNTLYLQMNSLRAEDTAVYYCARVGYGGNSDYWGQGTLVTVSS VL: DIQMTQSPSSVSASVGDRLTIICRASQDINRWLAWYQQTPGNAPKLLIHSATSLQSGVPSRFSGSGSGTDFTLTINSLQPEDFATYYCQQADSFPLTFGGGTKVEIK	–	1.53
XPA23 Fab, heavy chain S54Q (Fab, V domains shown) VH: EVQLLESGGGLVQPGGSLRLSCAASGFTFSKYFMFWVRQAPGKGLEWVSVISPQGGMTRYADSVKGRFTISRDNSKNTLYLQMNSLRAEDTAVYYCARVGYGGNSDYWGQGTLVTVSS VL: DIQMTQSPSSVSASVGDRLTIICRASQDINRWLAWYQQTPGNAPKLLIHSATSLQSGVPSRFSGSGSGTDFTLTINSLQPEDFATYYCQQADSFPLTFGGGTKVEIK	–	1.01
XPA23 Fab, heavy chain S52K (Fab, V domains shown) VH: EVQLLESGGGLVQPGGSLRLSCAASGFTFSKYFMFWVRQAPGKGLEWVSVIKPSGGMTRYADSVKGRFTISRDNSKNTLYLQMNSLRAEDTAVYYCARVGYGGNSDYWGQGTLVTVSS VL: DIQMTQSPSSVSASVGDRLTIICRASQDINRWLAWYQQTPGNAPKLLIHSATSLQSGVPSRFSGSGSGTDFTLTINSLQPEDFATYYCQQADSFPLTFGGGTKVEIK	no binding	–
XPA23 Fab, heavy chain S54D (Fab, V domains shown) VH: EVQLLESGGGLVQPGGSLRLSCAASGFTFSKYFMFWVRQAPGKGLEWVSVISPDGGMTRYADSVKGRFTISRDNSKNTLYLQMNSLRAEDTAVYYCARVGYGGNSDYWGQGTLVTVSS VL: DIQMTQSPSSVSASVGDRLTIICRASQDINRWLAWYQQTPGNAPKLLIHSATSLQSGVPSRFSGSGSGTDFTLTINSLQPEDFATYYCQQADSFPLTFGGGTKVEIK	–	0.12
XPA23 Fab, heavy chain S52H (Fab, V domains shown) VH: EVQLLESGGGLVQPGGSLRLSCAASGFTFSKYFMFWVRQAPGKGLEWVSVIHPSGGMTRYADSVKGRFTISRDNSKNTLYLQMNSLRAEDTAVYYCARVGYGGNSDYWGQGTLVTVSS VL: DIQMTQSPSSVSASVGDRLTIICRASQDINRWLAWYQQTPGNAPKLLIHSATSLQSGVPSRFSGSGSGTDFTLTINSLQPEDFATYYCQQADSFPLTFGGGTKVEIK	no binding	–
XPA23 Fab, heavy chain S52Y (Fab, V domains shown) VH: EVQLLESGGGLVQPGGSLRLSCAASGFTFSKYFMFWVRQAPGKGLEWVSVIYPSGGMTRYADSVKGRFTISRDNSKNTLYLQMNSLRAEDTAVYYCARVGYGGNSDYWGQGTLVTVSS VL: DIQMTQSPSSVSASVGDRLTIICRASQDINRWLAWYQQTPGNAPKLLIHSATSLQSGVPSRFSGSGSGTDFTLTINSLQPEDFATYYCQQADSFPLTFGGGTKVEIK	no binding	–
XPA23 Fab, heavy chain S54R (Fab, V domains shown) VH: EVQLLESGGGLVQPGGSLRLSCAASGFTFSKYFMFWVRQAPGKGLEWVSVISPRGGMTRYADSVKGRFTISRDNSKNTLYLQMNSLRAEDTAVYYCARVGYGGNSDYWGQGTLVTVSS VL: DIQMTQSPSSVSASVGDRLTIICRASQDINRWLAWYQQTPGNAPKLLIHSATSLQSGVPSRFSGSGSGTDFTLTINSLQPEDFATYYCQQADSFPLTFGGGTKVEIK	–	1.43
XPA23 Fab, heavy chain S52N (Fab, V domains shown) VH: EVQLLESGGGLVQPGGSLRLSCAASGFTFSKYFMFWVRQAPGKGLEWVSVINPSGGMTRYADSVKGRFTISRDNSKNTLYLQMNSLRAEDTAVYYCARVGYGGNSDYWGQGTLVTVSS VL: DIQMTQSPSSVSASVGDRLTIICRASQDINRWLAWYQQTPGNAPKLLIHSATSLQSGVPSRFSGSGSGTDFTLTINSLQPEDFATYYCQQADSFPLTFGGGTKVEIK	no binding	–
XPA23 Fab, heavy chain S54E (Fab, V domains shown) VH: EVQLLESGGGLVQPGGSLRLSCAASGFTFSKYFMFWVRQAPGKGLEWVSVISPEGGMTRYADSVKGRFTISRDNSKNTLYLQMNSLRAEDTAVYYCARVGYGGNSDYWGQGTLVTVSS VL: DIQMTQSPSSVSASVGDRLTIICRASQDINRWLAWYQQTPGNAPKLLIHSATSLQSGVPSRFSGSGSGTDFTLTINSLQPEDFATYYCQQADSFPLTFGGGTKVEIK	–	0.03
XPA23 Fab, heavy chain S54W (Fab, V domains shown) VH: EVQLLESGGGLVQPGGSLRLSCAASGFTFSKYFMFWVRQAPGKGLEWVSVISPWGGMTRYADSVKGRFTISRDNSKNTLYLQMNSLRAEDTAVYYCARVGYGGNSDYWGQGTLVTVSS VL: DIQMTQSPSSVSASVGDRLTIICRASQDINRWLAWYQQTPGNAPKLLIHSATSLQSGVPSRFSGSGSGTDFTLTINSLQPEDFATYYCQQADSFPLTFGGGTKVEIK	–	1.07
XPA23 Fab, heavy chain S52E (Fab, V domains shown) VH: EVQLLESGGGLVQPGGSLRLSCAASGFTFSKYFMFWVRQAPGKGLEWVSVIEPSGGMTRYADSVKGRFTISRDNSKNTLYLQMNSLRAEDTAVYYCARVGYGGNSDYWGQGTLVTVSS VL: DIQMTQSPSSVSASVGDRLTIICRASQDINRWLAWYQQTPGNAPKLLIHSATSLQSGVPSRFSGSGSGTDFTLTINSLQPEDFATYYCQQADSFPLTFGGGTKVEIK	no binding	–
